These results are taken from publication PMC5039622, “Characterization of aspartyl aminopeptidase from Toxoplasma gondii” (Scientific Reports, 2016).

In data set [1] the target is T1, rTgAAP (TgAAP, aspartyl aminopeptidase) (Toxoplasma gondii, UniProt A0A7J6KF82).
T1 construct: gene TGRH88_002740; full-length CDS 1521 bp, ~56 kDa (55897 Da predicted in ToxoDB), N-terminal GST tag kept (~80 kDa), E. coli BL21, pCold III; mainly dodecamer, also trimer and monomer on native PAGE
T1 sequence (A0A7J6KF82 1-508): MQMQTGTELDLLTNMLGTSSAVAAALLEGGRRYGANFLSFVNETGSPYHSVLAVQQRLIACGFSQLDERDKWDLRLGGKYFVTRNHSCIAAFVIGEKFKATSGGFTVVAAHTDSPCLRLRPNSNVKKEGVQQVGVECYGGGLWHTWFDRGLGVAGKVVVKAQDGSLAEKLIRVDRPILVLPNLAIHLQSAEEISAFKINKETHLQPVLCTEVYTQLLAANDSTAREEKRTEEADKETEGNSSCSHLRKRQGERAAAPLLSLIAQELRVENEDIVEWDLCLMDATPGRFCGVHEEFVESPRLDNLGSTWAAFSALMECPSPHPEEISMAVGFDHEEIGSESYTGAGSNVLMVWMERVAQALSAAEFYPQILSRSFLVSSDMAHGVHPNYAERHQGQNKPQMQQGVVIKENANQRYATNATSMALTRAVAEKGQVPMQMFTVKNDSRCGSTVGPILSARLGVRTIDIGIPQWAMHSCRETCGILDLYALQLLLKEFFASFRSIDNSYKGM
In words: inhibition of H-Glu-MCA hydrolysis. Format: biochemical. Conditions: 1 h pre-incubation at 37 °C; substrate H-Glu-MCA.

Substrate in data set [2]: Cc1cc(=O)oc2cc(NC(=O)[C@@H](N)CC(=O)O)ccc12
The experiment in a line: fluorogenic MCA release, initial rates. In kind it is biochemical, Toxoplasma gondii. Particulars: 37 °C, enzyme 0.3 μM, metal not stated for the kinetics. The source says:
(§1) fluorogenic MCA release, initial rates on rTgAAP (TgAAP, aspartyl aminopeptidase)

Substrate in data set [3]: Cc1cc(=O)oc2cc(NC(=O)[C@@H](N)CC(N)=O)ccc12
The experiment in a line: fluorogenic MCA release, initial rates. Format: biochemical, Toxoplasma gondii. Particulars: 37 °C, enzyme 0.3 μM, metal not stated for the kinetics.
Description: as §1

Substrate in data set [4]: Cc1cc(=O)oc2cc(NC(=O)[C@@H](N)CCC(=O)O)ccc12
The experiment in a line: fluorogenic MCA release, initial rates. In kind it is biochemical, Toxoplasma gondii. Conditions: 37 °C, enzyme 0.3 μM, metal not stated for the kinetics.
Description: as §1

Substrate in data set [5]: Cc1cc(=O)oc2cc(NC(=O)[C@@H](N)CO)ccc12
In words: fluorogenic MCA release, initial rates. Format: biochemical, Toxoplasma gondii. Conditions: 37 °C, enzyme 0.3 μM, metal not stated for the kinetics.
Description: as §1

Substrate in data set [6]: Cc1cc(=O)oc2cc(NC(=O)[C@@H](N)Cc3c[nH]cn3)ccc12
In words: fluorogenic MCA release, initial rates. Format: biochemical, Toxoplasma gondii. Particulars: 37 °C, enzyme 0.3 μM, metal not stated for the kinetics.
Description: as §1

Substrate in data set [7]: Cc1cc(=O)oc2cc(NC(=O)[C@@H]3CCCN3)ccc12
In words: fluorogenic MCA release, initial rates. In kind it is biochemical, Toxoplasma gondii. Particulars: 37 °C, enzyme 0.3 μM, metal not stated for the kinetics, printed kcat/Km 0.28 disagrees tenfold with printed kcat and Km.
Description: as §1

Where only a bound is given, the exact number is not on record here.

As to `Cl.Oc1ccc(CCNc2c3ccccc3nc3ccccc23)cc1O` [CID 23724194], the “% inhibition at 1 mM” value in data set [1] is more than 50%.

B1: rTgAAP (TgAAP, aspartyl aminopeptidase) (Toxoplasma gondii) (protein)
chain: T1 sequence (A0A7J6KF82 1-508)
notes: full-length CDS 1521 bp, ~56 kDa (55897 Da predicted in ToxoDB), N-terminal GST tag kept (~80 kDa), E. coli BL21, pCold III; mainly dodecamer, also trimer and monomer on native PAGE
Turning to B1, the Km was 12.84 ± 0.21 µM in data set [2]; 24.32 ± 0.26 µM in data set [3]; 7.35 ± 0.73 µM in data set [4]; 92.87 ± 3.38 µM in data set [5]; 88.70 ± 2.53 µM in data set [6]; 98.55 ± 1.96 µM in data set [7]. The kcat in data set [2] was 1.1 ± 0.0648 s⁻¹; in data set [3] it was 0.484 ± 0.0126 s⁻¹; in data set [4], 1.4 ± 0.306 s⁻¹; in data set [5], 0.123 ± 0.0086 s⁻¹; in data set [6] it was 0.208 ± 0.0043 s⁻¹. Besides, the kcat/Km in data set [2] stood at 85700 M⁻¹ s⁻¹; in data set [3] it was 19900 M⁻¹ s⁻¹; in data set [4], 190000 M⁻¹ s⁻¹; in data set [5], 1330 M⁻¹ s⁻¹; in data set [6], 2350 M⁻¹ s⁻¹.
